Common to all, as to conditions: both partners purified
Test [1] has as its target VP1 subunit of reduced O1M VLPs (Foot-and-mouth disease virus …, UniProt Q6PMW3). In words: far-Western, overlay or dot blot.
Test [2] addresses VP1 C-terminal peptide, residues 196-210 of O/UKG/34/2001 (Foot-and-mouth disease virus …, UniProt Q80B19). In words: ELISA. Background: In an ELISA, binding on a coated surface is turned into a signal by an enzyme label.
The target in test [3] is VP1 C-terminal peptide, residues 199-213 of O/UKG/34/2001 (Foot-and-mouth disease virus …, UniProt Q80B19). In words: ELISA.

Where a chain is given by its changes, count along the chain named.

This is an account of results in PMC13216289 (NPJ Vaccines, 2026).

B1: Ab34 (antibody, V domains shown)
VH: QVQLRESGPSLVKPSQTLSLTCTVSGFSLTDVHVGWVRQTPGKALEWVGVICNRGAIGYNPALESRLSITEDNSKSQVSLSLSSVTTADTATYYCASSCRTEGDVGGDCDSDHFFCAWGQGLLVTVSS
VL: SYELTQPTSVSVALGQTAKITCSGDLLDRQYAQWYQQKPGQGPVRVIYKDSERPSGISDRFSGSSSGKTATLTVSGAQTEDEADYYCHSADSSHYPVFGSGSTLTVL
For the molecule B1, the binding result in test [1] is on record as “binds”.

B2: Ab17 (antibody, V domains shown)
VH: QVQLRESGPSSLKPSQTLSLTCAVSGFSLSTYAVGWVRQAPGKALEWVGDITSSGDTFYNPALKSRFSITKDNSKNQVSLSVGSVTPEDTATFYCTRLTCGDDCSTAWHNFDAWGQGLLVTVSS
VL: SYELTQPTSVSVALGQTAKITCSGDLLDVQYTQWYQQKPGQGPVRVIYKDSERPSGISDRFSGSSSGKTATLIISGAQTEDEADYYCQSTDSSQYGIFGRGTTLTVL
In the case of B2, the binding result in test [1], in test [2] and in test [3] was “binds” in each case.

B3: Ab49 (antibody, V domains shown)
VH: QVQLRESGPSLVKPSQTLSLTCTVSGFSLTNYAVGWVRQAPGKAIQSLSIISTTGDTYYNPALKSRLSITKDNSKSQVSLSVSSVAPEDTATYYCVKFCGNADSAGHGWGCDYGDNENWGQGLLVTVSS
VL: B1 VL with R29E, A32T, V74I, H88Q, A90F, D91Y, H94T, Y95D, S102T
On to B3, for which the binding result in test [1], in test [2] and in test [3] was “binds” throughout.
